B1: 21A1 (antibody, V domains shown)
VH: QVQLVESGGGLVKPGGSLRLSCAASGFTFSDYYMSWIRQAPGKGLEWVSYISNSGITIYYADSVKGRFTISRDNAKNSLYLQMNSLRAGDTAVYYCAREEWYSSRWYRNFDYWGQGTLVTVSS
VL: DIQMTQFSSSLSASVGDRVTITCRASQSISRYLNWYQQKPGKAPKLLIYAASSLQSGVPSRFNGSGSGTDFTLTISSLQPEDFATYYCQQSYSAPLTFGGGTKVEIK
notes: Fully human mAb from XenoMouse hybridoma, tested as hybridoma supernatant
B2: 21H6 (antibody, V domains shown)
VH: B1 VH
VL: B1 VL
notes: as for B1
B3: 1G6 (antibody, V domains shown)
VH: EVQLLESGGGLVQPGGSLRLSCAASGFTFSSYAMSWVRQAPGKGLEWVSAISGGGGNTYYADSVKGRFTISRDNSKNTLYLQMNSLRAEDTAVYYCSKVATDYWGQGTLVTVSS
VL: QPVLTQSSSASASLGSSVKLTCTLSSGHSSYIIAWHQQQPGKAPRYLMKLEGSGSYNKGSGVPDRFSGSSSGADRYLTISNLQFEDEADYYCETWDSYTVVFGGGTKLTVL
notes: as for B1
B4: 31E11 (antibody, V domains shown)
VH: QVQLVESGGGLVKPGGSLRLSCAASGFTFSDYYMSWIRQAPGKGLEWVSYISISGSTIYYADSVKGRFTISRDNAKNSLYLQMNSLRAEDTAVYYCARDDFWSGYYFNWFDPWGQGTLVTVSS
VL: DIQMTQSPSSLSASVGDRVTITCRANQTISTFLNWYQQNPGKAPKLLIYAASSLQSGVPSRFSGSGSGTDFTLTISSLQPEDFATYYCQQTYIIPLTFGGGTKVEIK
B5: 24C9 (antibody, V domains shown)
VH: EVQLVESGGGLVKPGGSLRLSCAASGFTFSTYSMNWVRQAPGKGLEWVSFISGRSSYIYYADSVKGRFTISRDNAKNSLYLQMNSLRAEDTAVYYCSKDDWFEELWGQGTLVTVSS
VL: DIQMTQSPSSLSASVGDRVTITCRASQGIRNDLGWYQQKPGKAPKRLIYATFSLQSGVPSRFSGSGSGTEFTLTISSLQPEDFATYYCLQHNRYPWTFGQGTKVEIK
B6: 33E1 (antibody, V domains shown)
VH: QVQLQESGPGLVKPSQTLSLTCTVSGGSISSGDHYWSWIRQHPGKGLEWIGHIYYSGSTDYNPSLKSRVTISVDTSKNHFSLKLNSVTAADTAVYYCARTNSSSWSDWYFDLWGRGTLVTVSS
VL: DIVMTQSPDSLAVSLGERATINCKSSQSILYSSNNKNYLAWYQRKPGQPPILLIHWASTRESGVPDRFSGSGSRTDFTLTISSLQAEDVAVYYCQQYFITPWTFGQGTKVEIK
B7: 32C11 (antibody, V domains shown)
VH: EVQLLESGGTLVQPGGSLRLSCAASGFTFSNYAMSWVRQAPGKGLEWVSAISGRAGSTYYADSVKGRFTISRDNSKNTLFLQMNSLRAEDTAVYYCAKASGDDWGQGTLVTVSS
VL: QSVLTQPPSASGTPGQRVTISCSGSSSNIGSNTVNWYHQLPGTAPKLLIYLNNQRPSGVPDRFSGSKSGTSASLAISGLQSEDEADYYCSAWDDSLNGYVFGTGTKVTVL

molecular target: T1, soluble KDR extracellular domain (ECD) (Calbiochem) (human, UniProt P35968 20-764); experiment: High Antigen ELISA, KDR coat 500 ng/mL, supernatant 1:6075
T1 construct: extracellular domain; Bought protein; also called KDR-ECD; VEGF Receptor 2 D1-7, Cat. #676490
T1 sequence (P35968 20-764): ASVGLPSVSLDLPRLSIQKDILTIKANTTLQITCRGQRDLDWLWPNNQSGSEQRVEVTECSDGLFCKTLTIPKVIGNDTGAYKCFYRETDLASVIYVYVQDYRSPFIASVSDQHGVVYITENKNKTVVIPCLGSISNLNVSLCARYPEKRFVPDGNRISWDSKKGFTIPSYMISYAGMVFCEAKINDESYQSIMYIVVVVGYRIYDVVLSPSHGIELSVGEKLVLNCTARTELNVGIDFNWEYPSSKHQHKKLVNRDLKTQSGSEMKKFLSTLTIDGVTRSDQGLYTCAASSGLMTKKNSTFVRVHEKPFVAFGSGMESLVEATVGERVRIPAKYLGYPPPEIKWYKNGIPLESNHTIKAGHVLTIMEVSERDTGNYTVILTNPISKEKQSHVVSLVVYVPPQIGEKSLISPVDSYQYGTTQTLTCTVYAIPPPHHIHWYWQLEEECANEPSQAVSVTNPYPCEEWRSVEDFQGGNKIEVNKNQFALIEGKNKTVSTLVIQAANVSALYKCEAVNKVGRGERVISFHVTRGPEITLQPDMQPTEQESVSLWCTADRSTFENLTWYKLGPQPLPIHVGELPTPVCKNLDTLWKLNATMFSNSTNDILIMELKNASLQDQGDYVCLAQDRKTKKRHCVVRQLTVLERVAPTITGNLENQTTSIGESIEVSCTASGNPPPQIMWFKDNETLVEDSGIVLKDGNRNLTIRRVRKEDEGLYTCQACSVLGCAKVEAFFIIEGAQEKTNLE
Method: (§1) ELISA plates were coated with a greater amount of KDR (at 500 ng/mL) in comparison with the Limited Antigen Quantitation assay described below. Sample containing antibody (Ab) was titrated on the KDR-coated ELISA plates and was incubated overnight at 4° C. to allow Ab binding to approach equilibrium. Titration of Ab in sample covered a dilution range of 1:25 to 1:18,225. A standard curve of KDR-specific antibody of known concentration was used to define the linear range of the assay. Data within the linear range were used to derive the relative concentration of KDR-specific Ab in each titrated sample. The high KDR concentration and the overnight incubation limited the effect of Ab affinity, allowing quantitation of the relative amount of KDR-specific Ab present in each sample.

| Binder | ELISA reading |
| --- | --- |
| B1 | 0.56 |
| B2 | 1.17 |
| B3 | 0.34 |

molecular target: T2, KDR (human, UniProt P35968 20-1356); experiment: cell-based or functional assay
T2 sequence (P35968 20-1356): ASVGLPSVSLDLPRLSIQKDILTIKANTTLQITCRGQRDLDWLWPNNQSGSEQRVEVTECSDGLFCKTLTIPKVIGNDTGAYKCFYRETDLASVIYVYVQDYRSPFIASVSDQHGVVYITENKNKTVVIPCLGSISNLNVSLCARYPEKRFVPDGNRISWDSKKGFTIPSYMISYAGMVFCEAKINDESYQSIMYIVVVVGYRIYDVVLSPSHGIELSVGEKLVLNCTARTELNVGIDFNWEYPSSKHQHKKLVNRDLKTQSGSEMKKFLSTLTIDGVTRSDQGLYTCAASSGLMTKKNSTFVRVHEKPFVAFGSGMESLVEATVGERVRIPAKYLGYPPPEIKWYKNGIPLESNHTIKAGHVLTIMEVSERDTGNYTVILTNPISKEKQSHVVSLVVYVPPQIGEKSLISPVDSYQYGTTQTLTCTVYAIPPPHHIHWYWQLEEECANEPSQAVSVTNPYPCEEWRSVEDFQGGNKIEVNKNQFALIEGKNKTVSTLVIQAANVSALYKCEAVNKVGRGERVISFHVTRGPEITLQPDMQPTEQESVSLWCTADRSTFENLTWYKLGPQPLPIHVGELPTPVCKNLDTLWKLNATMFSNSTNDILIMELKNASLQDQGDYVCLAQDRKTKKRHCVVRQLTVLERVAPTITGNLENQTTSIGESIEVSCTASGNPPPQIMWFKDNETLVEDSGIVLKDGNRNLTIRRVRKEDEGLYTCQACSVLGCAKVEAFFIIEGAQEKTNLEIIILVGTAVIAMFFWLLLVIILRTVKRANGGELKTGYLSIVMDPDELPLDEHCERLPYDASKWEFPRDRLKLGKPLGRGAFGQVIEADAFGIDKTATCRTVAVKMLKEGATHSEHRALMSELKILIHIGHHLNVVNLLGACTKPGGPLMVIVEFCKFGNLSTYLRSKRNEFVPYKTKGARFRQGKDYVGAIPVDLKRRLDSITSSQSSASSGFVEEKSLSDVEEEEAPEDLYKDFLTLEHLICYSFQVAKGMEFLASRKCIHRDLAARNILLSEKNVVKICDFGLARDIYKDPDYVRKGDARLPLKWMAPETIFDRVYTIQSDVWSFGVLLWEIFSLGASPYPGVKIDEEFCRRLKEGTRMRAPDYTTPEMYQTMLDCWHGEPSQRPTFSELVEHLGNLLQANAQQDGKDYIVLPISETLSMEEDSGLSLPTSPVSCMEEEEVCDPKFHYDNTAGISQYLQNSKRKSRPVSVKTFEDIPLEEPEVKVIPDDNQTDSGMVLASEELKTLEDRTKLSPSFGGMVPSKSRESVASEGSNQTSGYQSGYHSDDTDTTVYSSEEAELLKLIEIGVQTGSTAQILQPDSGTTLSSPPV

| Binder | Activity at 133 nM Antibody Concentration (% Survival Inhibition), Average [%] | Activity at 133 nM Antibody Concentration (% Survival Inhibition), N = 1 [%] | Activity at 133 nM Antibody Concentration (% Survival Inhibition), N = 2 [%] |
| --- | --- | --- | --- |
| B4 | 89 | 83 | 95 |
| B5 | 57 | 57 | – |
| B6 | 92 | 86 | 97 |
| B7 | -91 | -95 | -87 |

molecular target: T2, KDR; experiment: cell-based or functional assay; remark: another data set of the same source

| Binder | Activity at 133 nM (% Inhibition), 24-hour Pre-incubation at 37° C., Average [%] | Activity at 133 nM (% Inhibition), 24-hour Pre-incubation at 37° C., N = 1 [%] | Activity at 133 nM (% Inhibition), 24-hour Pre-incubation at 37° C., N = 2 [%] |
| --- | --- | --- | --- |
| B4 | 69 | 90 | 48 |
| B5 | 46 | 46 | – |
| B6 | 77 | 85 | 68 |
| B7 | 73 | 73 | 73 |

molecular target: T1, soluble KDR extracellular domain (ECD) …; experiment: Limited Antigen ELISA, KDR coat 12.5 ng/mL, supernatant 1:25
Method: (§2) Samples containing one concentration of antibody (Ab) (1:25 dilution) were incubated overnight to allow Ab binding to approach equilibrium. The low antigen concentration limited the effect of antibody concentration, allowing ranking of the antibodies based on their relative affinity.

| Binder | ELISA reading |
| --- | --- |
| B1 | 0.81 |
| B2 | 0.52 |
| B3 | 0.32 |

molecular target: T2, KDR; experiment: cell-based or functional assay; remark: another data set of the same source

| Binder | % Inhibition of VEGF165-mediated 6-keto Prostaglandin F1α release at 133 nM Antibody Concentration, Average [%] | % Inhibition of VEGF165-mediated 6-keto Prostaglandin F1α release at 133 nM Antibody Concentration, N = 1 [%] | % Inhibition of VEGF165-mediated 6-keto Prostaglandin F1α release at 133 nM Antibody Concentration, N = 2 [%] |
| --- | --- | --- | --- |
| B4 | 114 | 130 | 98 |
| B5 | 91 | 91 | – |
| B6 | 113 | 128 | 98 |
| B7 | 9 | 6 | 11 |

molecular target: T2, KDR; experiment: cell-based or functional assay; remark: another data set of the same source

| Binder | % of Max VEGF KDR pTyr Activity (at 133 nM antibody concentration), Average [%] | % of Max VEGF KDR pTyr Activity (at 133 nM antibody concentration), N = 1 [%] | % of Max VEGF KDR pTyr Activity (at 133 nM antibody concentration), N = 2 [%] |
| --- | --- | --- | --- |
| B4 | 5 | 4 | 6 |
| B5 | 13 | 13 | – |
| B6 | 8 | 5 | 10 |
| B7 | 10 | 9 | 11 |

molecular target: T1, soluble KDR extracellular domain (ECD) …; experiment: High Antigen ELISA, KDR coat 500 ng/mL, supernatant 1:2025
Method: as §1

| Binder | ELISA reading |
| --- | --- |
| B1 | 1.66 |
| B2 | 2.91 |
| B3 | 0.69 |

molecular target: T1, soluble KDR extracellular domain (ECD) …; experiment: High Antigen ELISA, KDR coat 500 ng/mL, supernatant 1:225
Method: as §1

| Binder | ELISA reading |
| --- | --- |
| B1 | 4.14 |
| B2 | 5.57 |
| B3 | 4.49 |

molecular target: T1, soluble KDR extracellular domain (ECD) …; experiment: Limited Antigen ELISA, KDR coat 6.25 ng/mL, supernatant 1:25
Method: as §2

| Binder | ELISA reading |
| --- | --- |
| B1 | 0.38 |
| B2 | 0.23 |
| B3 | 0.2 |

molecular target: T1, soluble KDR extracellular domain (ECD) …; experiment: High Antigen ELISA, KDR coat 500 ng/mL, supernatant 1:675
Method: as §1

| Binder | ELISA reading |
| --- | --- |
| B1 | 3.36 |
| B2 | 4.02 |
| B3 | 2.24 |

molecular target: T1, soluble KDR extracellular domain (ECD) …; experiment: Limited Antigen ELISA, KDR coat 3.125 ng/mL, supernatant 1:25
Method: as §2

| Binder | ELISA reading |
| --- | --- |
| B1 | 0.23 |
| B2 | 0.15 |
| B3 | 0.12 |

molecular target: T1, soluble KDR extracellular domain (ECD) …; experiment: High Antigen ELISA, KDR coat 500 ng/mL, supernatant 1:25
Method: as §1

| Binder | ELISA reading |
| --- | --- |
| B1 | 4.45 |
| B2 | 6 |
| B3 | 6 |

molecular target: T2, KDR; experiment: cell-based or functional assay; remark: another data set of the same source

| Binder | Activity at 133 nM (% Inhibition), 1-hour Pre-incubation at 4° C., Average [%] | Activity at 133 nM (% Inhibition), 1-hour Pre-incubation at 4° C., N = 1 [%] | Activity at 133 nM (% Inhibition), 1-hour Pre-incubation at 4° C., N = 2 [%] |
| --- | --- | --- | --- |
| B4 | 81 | 82 | 80 |
| B5 | 81 | 81 | – |
| B6 | 77 | 78 | 75 |
| B7 | 27 | 32 | 21 |

molecular target: T1, soluble KDR extracellular domain (ECD) …; experiment: High Antigen ELISA, KDR coat 500 ng/mL, supernatant 1:75
Method: as §1

| Binder | ELISA reading |
| --- | --- |
| B1 | 4.43 |
| B2 | 4.19 |
| B3 | 6 |

molecular target: T1, soluble KDR extracellular domain (ECD) …; experiment: High Antigen ELISA, KDR coat 500 ng/mL, supernatant 1:18,225
Method: as §1

| Binder | ELISA reading |
| --- | --- |
| B1 | 0.25 |
| B2 | 0.54 |
| B3 | 0.26 |

molecular target: T1, soluble KDR extracellular domain (ECD) …; experiment: Limited Antigen ELISA, KDR coat 25 ng/mL, supernatant 1:25
Method: as §2

| Binder | ELISA reading |
| --- | --- |
| B1 | 1.47 |
| B2 | 0.97 |
| B3 | 0.65 |

molecular target: KDR endogenously expressed on human umbilical vein endothelial cells (HUVEC) (human, UniProt P35968 20-1356); experiment: cell-based or functional assay
Sequence (P35968 20-1356): as above

| Binder | VEGF-E-mediated Survival % Inhibition (Average) [%] | VEGF-E-mediated Survival % Inhibition (n = 1) [%] | VEGF-E-mediated Survival % Inhibition (n = 2) [%] |
| --- | --- | --- | --- |
| B1 | 42 | 45 | 40 |
| B2 | 55 | 56 | 53 |
| B3 | 2 | -2 | 6 |

molecular target: T1, soluble KDR extracellular domain (ECD) …; experiment: Limited Antigen ELISA, KDR coat 50 ng/mL, supernatant 1:25
Method: as §2

| Binder | ELISA reading |
| --- | --- |
| B1 | 2.65 |
| B2 | 1.83 |
| B3 | 1.38 |

— patent US20100260765A1 (AstraZeneca / MedImmune, published 2010)
